1 substance from paper doi:10.1101/2024.05.31.596772 can be followed below.

The experiment deals with microtubules (pig (purified from porcine brain)). As to the kind of experiment: co-sedimentation.

Chain of CKK dimer (mRFP1-FKBP-CKK and mEGFP-FRB-CKK with rapamycin) (Q80VC9 whole entry, looked up, one chain of several): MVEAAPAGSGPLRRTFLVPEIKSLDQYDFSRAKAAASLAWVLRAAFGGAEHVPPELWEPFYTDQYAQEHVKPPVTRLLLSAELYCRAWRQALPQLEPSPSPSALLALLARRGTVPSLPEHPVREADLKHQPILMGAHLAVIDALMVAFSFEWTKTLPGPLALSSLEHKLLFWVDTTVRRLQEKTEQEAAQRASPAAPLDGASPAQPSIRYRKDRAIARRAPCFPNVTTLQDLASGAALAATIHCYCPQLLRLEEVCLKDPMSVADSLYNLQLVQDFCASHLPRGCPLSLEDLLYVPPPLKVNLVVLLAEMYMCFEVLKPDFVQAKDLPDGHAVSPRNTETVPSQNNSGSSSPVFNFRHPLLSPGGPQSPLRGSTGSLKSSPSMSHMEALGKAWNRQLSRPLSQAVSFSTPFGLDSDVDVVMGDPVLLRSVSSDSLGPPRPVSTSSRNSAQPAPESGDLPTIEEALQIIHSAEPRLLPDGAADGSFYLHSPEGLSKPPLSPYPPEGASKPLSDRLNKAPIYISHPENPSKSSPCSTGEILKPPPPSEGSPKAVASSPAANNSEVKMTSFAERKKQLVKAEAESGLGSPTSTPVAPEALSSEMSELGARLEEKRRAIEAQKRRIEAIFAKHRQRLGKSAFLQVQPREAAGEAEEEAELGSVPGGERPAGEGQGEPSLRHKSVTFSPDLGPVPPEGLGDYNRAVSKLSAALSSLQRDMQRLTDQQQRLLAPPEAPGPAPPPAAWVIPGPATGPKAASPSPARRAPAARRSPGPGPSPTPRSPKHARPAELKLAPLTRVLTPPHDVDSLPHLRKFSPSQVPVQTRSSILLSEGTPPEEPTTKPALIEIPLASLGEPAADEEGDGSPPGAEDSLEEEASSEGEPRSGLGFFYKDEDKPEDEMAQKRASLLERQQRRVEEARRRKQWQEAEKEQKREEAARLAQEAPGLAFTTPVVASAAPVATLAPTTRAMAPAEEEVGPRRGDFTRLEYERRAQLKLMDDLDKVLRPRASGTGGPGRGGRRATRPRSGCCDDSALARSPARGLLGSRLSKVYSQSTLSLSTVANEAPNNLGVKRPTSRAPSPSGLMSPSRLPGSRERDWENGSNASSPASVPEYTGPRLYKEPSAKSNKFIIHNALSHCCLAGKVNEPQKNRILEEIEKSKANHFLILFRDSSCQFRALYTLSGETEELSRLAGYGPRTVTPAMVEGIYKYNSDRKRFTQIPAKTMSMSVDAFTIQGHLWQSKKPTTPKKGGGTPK

Substance “CKK dimer (mRFP1-FKBP-CKK and mEGFP-FRB-CKK with rapamycin) (from UniProt Q80VC9 1112-1246; Q80VC9 1112-1246) (complex)” displayed a Kd of 147 nM.

As a reminder, the Kd is the constant that tells how readily two partners part at equilibrium. Higher therefore signals weaker binding.
